Results published in the supplement of paper PMC5998384.

Assays:
HeLa Kyoto [1] = assay: solubility change mitosis vs G1/S (difference of NP-40 vs SDS log2 ratios) (log2 ratio difference); higher = more soluble in mitosis
HeLa Kyoto [2] = assay: melting temperature (median over replicates), in situ; higher = more thermally stable
HeLa Kyoto [3] = assay: solubility in G1/S (NP-40 vs SDS abundance) (log2 ratio); higher = more soluble; settings: cell cycle stage: G1/S
HeLa Kyoto [4] = assay: thermal stability score vs G1/S (z-score of summed log2 fold changes over temperatures); higher = more thermally stable than in G1/S
[5] = cell cycle stage: early G1 (4.5 h after nocodazole release)
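Wherever melting temperature (median over replicates), in situ is given: HeLa Kyoto cells synchronized by double thymidine or nocodazole block, proteins quantified by TMT10plex mass spectrometry, three independent biological replicates.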
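Wherever solubility change mitosis vs G1/S (difference of NP-40 vs SDS log2 ratios) is given: synchronized HeLa Kyoto cells (double thymidine block for G1/S, nocodazole release for mitosis), protein amounts in NP-40 versus SDS lysates quantified by mass spectrometry, three biological replicates.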
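Wherever solubility in G1/S (NP-40 vs SDS abundance) is given: HeLa Kyoto cells arrested at G1/S by double thymidine block, proteins quantified by TMT10plex mass spectrometry in mild NP-40 versus SDS extracts, three biological replicates.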
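Wherever thermal stability score vs G1/S (z-score of summed log2 fold changes over temperatures) is given: synchronized HeLa Kyoto cells, proteins quantified by TMT10plex mass spectrometry, three biological replicates, mitosis taken 0.5 h after nocodazole release, G1/S directly after double thymidine block.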

Substance | solubility change mitosis (log2) (HeLa Kyoto [1]) | melting temperature (HeLa Kyoto [2]; cell cycle stage: G1/S) | melting temperature (HeLa Kyoto [2]; cell cycle stage: mitosis) | solubility in G1/S (log2) (HeLa Kyoto [3]) | thermal stability score (HeLa Kyoto [4]; [5]) | thermal stability score (HeLa Kyoto [4]; cell cycle stage: mitosis)
MAEGGGCRERPDAETQKSELGPLMRTTLQRGAQWYLIDSRWFKQWKKYVGFDSWDMYNVGEHNLFPGPIDNSGLFSDPESQTLKEHLIDELDYVLVPTEAWNKLLNWYGCVEGQQPIVRKVVEHGLFVKHCKVEVYLLELKLCENSDPTNVLSCHFSKADTIATIEKEMRKLFNIPAERETRLWNKYMSNTYEQLSKLDNTVQDAGLYQGQVLVIEPQNEDGTWPRQTLQSKSSTAPSRNFTTSPKSSASPYSSVSASLIANGDSTSTCGMHSSGVSRGGSGFSASYNCQEPPSSHIQPGLCGLGNLGNTCFMNSALQCLSNTAPLTDYFLKDEYEAEINRDNPLGMKGEIAEAYAELIKQMWSGRDAHVAPRMFKTQVGRFAPQFSGYQQQDSQELLAFLLDGLHEDLNRVKKKPYLELKDANGRPDAVVAKEAWENHRLRNDSVIVDTFHGLFKSTLVCPECAKVSVTFDPFCYLTLPLPLKKDRVMEVFLVPADPHCRPTQYRVTVPLMGAVSDLCEALSRLSGIAAENMVVADVYNHRFHKIFQMDEGLNHIMPRDDIFVYEVCSTSVDGSECVTLPVYFRERKSRPSSTSSASALYGQPLLLSVPKHKLTLESLYQAVCDRISRYVKQPLPDEFGSSPLEPGACNGSRNSCEGEDEEEMEHQEEGKEQLSETEGSGEDEPGNDPSETTQKKIKGQPCPKRLFTFSLVNSYGTADINSLAADGKLLKLNSRSTLAMDWDSETRRLYYDEQESEAYEKHVSMLQPQKKKKTTVALRDCIELFTTMETLGEHDPWYCPNCKKHQQATKKFDLWSLPKILVVHLKRFSYNRYWRDKLDTVVEFPIRGLNMSEFVCNLSARPYVYDLIAVSNHYGAMGVGHYTAYAKNKLNGKWYYFDDSNVSLASEDQIVTKAAYVLFYQRRDDEFYKTPSLSSSGSSDGGTRPSSSQQGFGDDEACSMDTN [USP4] | -0.278 | 48.4 °C | 48.5 °C | 0.0816 | 0.154 | 0.64
MAERQEEQRGSPPLRAEGKADAEVKLILYHWTHSFSSQKVRLVIAEKALKCEEHDVSLPLSEHNEPWFMRLNSTGEVPVLIHGENIICEATQIIDYLEQTFLDERTPRLMPDKESMYYPRVQHYRELLDSLPMDAYTHGCILHPELTVDSMIPAYATTRIRSQIGNTESELKKLAEENPDLQEAYIAKQKRLKSKLLDHDNVKYLKKILDELEKVLDQVETELQRRNEETPEEGQQPWLCGESFTLADVSLAVTLHRLKFLGFARRNWGNGKRPNLETYYERVLKRKTFNKVLGHVNNILISAVLPTAFRVAKKRAPKVLGTTLVVGLLAGVGYFAFMLFRKRLGSMILAFRPRPNYF [GDAP1] | -0.1 | 54 °C | 52 °C | -0.194 | 1.45 | 1.45
MHVIKRDGRQERVMFDKITSRIQKLCYGLNMDFVDPAQITMKVIQGLYSGVTTVELDTLAAETAATLTTKHPDYAILAARIAVSNLHKETKKVFSDVMEDLYNYINPHNGKHSPMVAKSTLDIVLANKDRLNSAIIYDRDFSYNYFGFKTLERSYLLKINGKVAERPQHMLMRVSVGIHKEDIDAAIETYNLLSERWFTHASPTLFNAGTNRPQLSSCFLLSMKDDSIEGIYDTLKQCALISKSAGGIGVAVSCIRATGSYIAGTNGNSNGLVPMLRVYNNTARYVDQGGNKRPGAFAIYLEPWHLDIFEFLDLKKNTGKEEQRARDLFFALWIPDLFMKRVETNQDWSLMCPNECPGLDEVWGEEFEKLYASYEKQGRVRKVVKAQQLWYAIIESQTETGTPYMLYKDSCNRKSNQQNLGTIKCSNLCTEIVEYTSKDEVAVCNLASLALNMYVTSEHTYDFKKLAEVTKVVVRNLNKIIDINYYPVPEACLSNKRHRPIGIGVQGLADAFILMRYPFESAEAQLLNKQIFETIYYGALEASCDLAKEQGPYETYEGSPVSKGILQYDMWNVTPTDLWDWKVLKEKIAKYGIRNSLLIAPMPTASTAQILGNNESIEPYTSNIYTRRVLSGEFQIVNPHLLKDLTERGLWHEEMKNQIIACNGSIQSIPEIPDDLKQLYKTVWEISQKTVLKMAAERGAFIDQSQSLNIHIAEPNYGKLTSMHFYGWKQGLKTGMYYLRTRPAANPIQFTLNKEKLKDKEKVSKEEEEKERNTAAMVCSLENRDECLMCGS [RRM1] | -0.154 | 56.1 °C | 53.8 °C | -0.148 | -8.92 | -8.47
MEIPPTNYPASRAALVAQNYINYQQGTPHRVFEVQKVKQASMEDIPGRGHKYHLKFAVEEIIQKQVKVNCTAEVLYPSTGQETAPEVNFTFEGETGKNPDEEDNTFYQRLKSMKEPLEAQNIPDNFGNVSPEMTLVLHLAWVACGYIIWQNSTEDTWYKMVKIQTVKQVQRNDDFIELDYTILLHNIASQEIIPWQMQVLWHPQYGTKVKHNSRLPKEVQLE [LXN] | -0.098 | 51.9 °C | 52.3 °C | 0.224 | 0.745 | 0.0486
MLPLSLLKTAQNHPMLVELKNGETYNGHLVSCDNWMNINLREVICTSRDGDKFWRMPECYIRGSTIKYLRIPDEIIDMVKEEVVAKGRGRGGLQQQKQQKGRGMGGAGRGVFGGRGRGGIPGTGRGQPEKKPGRQAGKQ [LSM4] | 0.187 | 58.1 °C | 54.6 °C | 0.0844 | -3.84 | -4.06
MAGRLLGKALAAVSLSLALASVTIRSSRCRGIQAFRNSFSSSWFHLNTNVMSGSNGSKENSHNKARTSPYPGSKVERSQVPNEKVGWLVEWQDYKPVEYTAVSVLAGPRWADPQISESNFSPKFNEKDGHVERKSKNGLYEIENGRPRNPAGRTGLVGRGLLGRWGPNHAADPIITRWKRDSSGNKIMHPVSGKHILQFVAIKRKDCGEWAIPGGMVDPGEKISATLKREFGEEALNSLQKTSAEKREIEEKLHKLFSQDHLVIYKGYVDDPRNTDNAWMETEAVNYHDETGEIMDNLMLEAGDDAGKVKWVDINDKLKLYASHSQFIKLVAEKRDAHWSEDSEADCHAL [NUDT9] | 0.00145 | 50.3 °C | 50.5 °C | 0.41 | -0.398 | -0.161
MANVPWAEVCEKFQAALALSRVELHKNPEKEPYKSKYSARALLEEVKALLGPAPEDEDERPEAEDGPGAGDHALGLPAEVVEPEGPVAQRAVRLAVIEFHLGVNHIDTEELSAGEEHLVKCLRLLRRYRLSHDCISLCIQAQNNLGILWSEREEIETAQAYLESSEALYNQYMKEVGSPPLDPTERFLPEEEKLTEQERSKRFEKVYTHNLYYLAQVYQHLEMFEKAAHYCHSTLKRQLEHNAYHPIEWAINAATLSQFYINKLCFMEARHCLSAANVIFGQTGKISATEDTPEAEGEVPELYHQRKGEIARCWIKYCLTLMQNAQLSMQDNIGELDLDKQSELRALRKKELDEEESIRKKAVQFGTGELCDAISAVEEKVSYLRPLDFEEARELFLLGQHYVFEAKEFFQIDGYVTDHIEVVQDHSALFKVLAFFETDMERRCKMHKRRIAMLEPLTVDLNPQYYLLVNRQIQFEIAHAYYDMMDLKVAIADRLRDPDSHIVKKINNLNKSALKYYQLFLDSLRDPNKVFPEHIGEDVLRPAMLAKFRVARLYGKIITADPKKELENLATSLEHYKFIVDYCEKHPEAAQEIEVELELSKEMVSLLPTKMERFRTKMALT [KIF1BP] | -0.161 | 49 °C | 49 °C | 0.141 | 0.769 | 2.03
MAPWPPKGLVPAMLWGLSLFLNLPGPIWLQPSPPPQSSPPPQPHPCHTCRGLVDSFNKGLERTIRDNFGGGNTAWEEENLSKYKDSETRLVEVLEGVCSKSDFECHRLLELSEELVESWWFHKQQEAPDLFQWLCSDSLKLCCPAGTFGPSCLPCPGGTERPCGGYGQCEGEGTRGGSGHCDCQAGYGGEACGQCGLGYFEAERNASHLVCSACFGPCARCSGPEESNCLQCKKGWALHHLKCVDIDECGTEGANCGADQFCVNTEGSYECRDCAKACLGCMGAGPGRCKKCSPGYQQVGSKCLDVDECETEVCPGENKQCENTEGGYRCICAEGYKQMEGICVKEQIPESAGFFSEMTEDELVVLQQMFFGIIICALATLAAKGDLVFTAIFIGAVAAMTGYWLSERSDRVLEGFIKGR [CRELD1] | -0.0647 | 53.8 °C | 53 °C | -0.215 | 0.91 | 1.48
MLSQVYRCGFQPFNQHLLPWVKCTTVFRSHCIQPSVIRHVRSWSNIPFITVPLSRTHGKSFAHRSELKHAKRIVVKLGSAVVTRGDECGLALGRLASIVEQVSVLQNQGREMMLVTSGAVAFGKQRLRHEILLSQSVRQALHSGQNQLKEMAIPVLEARACAAAGQSGLMALYEAMFTQYSICAAQILVTNLDFHDEQKRRNLNGTLHELLRMNIVPIVNTNDAVVPPAEPNSDLQGVNVISVKDNDSLAARLAVEMKTDLLIVLSDVEGLFDSPPGSDDAKLIDIFYPGDQQSVTFGTKSRVGMGGMEAKVKAALWALQGGTSVVIANGTHPKVSGHVITDIVEGKKVGTFFSEVKPAGPTVEQQGEMARSGGRMLATLEPEQRAEIIHHLADLLTDQRDEILLANKKDLEEAEGRLAAPLLKRLSLSTSKLNSLAIGLRQIAASSQDSVGRVLRRTRIAKNLELEQVTVPIGVLLVIFESRPDCLPQVAALAIASGNGLLLKGGKEAAHSNRILHLLTQEALSIHGVKEAVQLVNTREEVEDLCRLDKMIDLIIPRGSSQLVRDIQKAAKGIPVMGHSEGICHMYVDSEASVDKVTRLVRDSKCEYPAACNALETLLIHRDLLRTPLFDQIIDMLRVEQVKIHAGPKFASYLTFSPSEVKSLRTEYGDLELCIEVVDNVQDAIDHIHKYGSSHTDVIVTEDENTAEFFLQHVDSACVFWNASTRFSDGYRFGLGAEVGISTSRIHARGPVGLEGLLTTKWLLRGKDHVVSDFSEHGSLKYLHENLPIPQRNTN [ALDH18A1] | -0.0142 | 52.5 °C | 52.1 °C | -0.0382 | -0.326 | -2.31
MRLKIGFILRSLLVVGSFLGLVVLWSSLTPRPDDPSPLSRMREDRDVNDPMPNRGGNGLAPGEDRFKPVVPWPHVEGVEVDLESIRRINKAKNEQEHHAGGDSQKDIMQRQYLTFKPQTFTYHDPVLRPGILGNFEPKEPEPPGVVGGPGEKAKPLVLGPEFKQAIQASIKEFGFNMVASDMISLDRSVNDLRQEECKYWHYDENLLTSSVVIVFHNEGWSTLMRTVHSVIKRTPRKYLAEIVLIDDFSNKEHLKEKLDEYIKLWNGLVKVFRNERREGLIQARSIGAQKAKLGQVLIYLDAHCEVAVNWYAPLVAPISKDRTICTVPLIDVINGNTYEIIPQGGGDEDGYARGAWDWSMLWKRVPLTPQEKRLRKTKTEPYRSPAMAGGLFAIEREFFFELGLYDPGLQIWGGENFEISYKIWQCGGKLLFVPCSRVGHIYRLEGWQGNPPPIYVGSSPTLKNYVRVVEVWWDEYKDYFYASRPESQALPYGDISELKKFREDHNCKSFKWFMEEIAYDITSHYPLPPKNVDWGEIRGFETAYCIDSMGKTNGGFVELGPCHRMGGNQLFRINEANQLMQYDQCLTKGADGSKVMITHCNLNEFKEWQYFKNLHRFTHIPSGKCLDRSEVLHQVFISNCDSSKTTQKWEMNNIHSV [GALNT7] | -0.135 | 53.7 °C | 53.8 °C | -0.206 | 0.0877 | 0.865
PSIP1 | 0.557 | 50.8 °C | 52.2 °C | 0.071 | -1.03 | -2.11
MASRCWRWWGWSAWPRTRLPPAGSTPSFCHHFSTQEKTPQICVVGSGPAGFYTAQHLLKHPQAHVDIYEKQPVPFGLVRFGVAPDHPEVKNVINTFTQTAHSGRCAFWGNVEVGRDVTVPELREAYHAVVLSYGAEDHRALEIPGEELPGVCSARAFVGWYNGLPENQELEPDLSCDTAVILGQGNVALDVARILLTPPEHLERTDITKAALGVLRQSRVKTVWLVGRRGPLQVAFTIKELREMIQLPGARPILDPVDFLGLQDKIKEVPRPRKRLTELLLRTATEKPGPAEAARQASASRAWGLRFFRSPQQVLPSPDGRRAAGVRLAVTRLEGVDEATRAVPTGDMEDLPCGLVLSSIGYKSRPVDPSVPFDSKLGVIPNVEGRVMDVPGLYCSGWVKRGPTGVIATTMTDSFLTGQMLLQDLKAGLLPSGPRPGYAAIQALLSSRGVRPVSFSDWEKLDAEEVARGQGTGKPREKLVDPQEMLRLLGH [FDXR] | -0.0461 | 51.7 °C | 51.8 °C | 0.349 | 0.0282 | 0.706
